From patent US8536230B2, “Methods for regulating gelation of polysaccharide solutions and uses thereof” (University of Virginia Patent Foundation, priority 2006, dated 2013)

Assay: In vitro release of FITC-dextran / FITC-albumin from chitosan-AHP gels in PBS
Assay type: physicochemical
Conditions: FITC albumin loaded (1, 2, and 3%) gels, PBS 37° C.
Method: FITC dextran loaded samples (0.5×1 cm) were placed in histology cups and incubated in 50 mL PBS at 37° C. in a shaking water bath. At predetermined time points, 5 mL of the release media was removed and replenished with 5 mL of PBS. The FITC dextran concentration was determined spectrophotometrically and the percentage cumulative release was calculated. The three groups include 1% dextran, 0.5% dextran, and 0.5% dextran diluted. (see FIG. 8A).
For FITC-dextran loading, appropriate amounts (0.5, 1, and 5% w/v) of FITC-dextrans were dissolved in chitosan-AHP solutions. The respective dextran loaded solutions were poured into petri dishes and allowed to set at 37° C. for 12 h. Circular discs (8 mm diameter) were bored from the thermo-gelled films for in vitro release studies. […] The FITC-dextran concentration in the release media were determined spectrophotometrically at 491 nm and the percentage cumulative release was calculated based on the total FITC-D content. Statistical significance (p<0.05) was determined using one way ANOVA.
Also tested was the release profile of FITC-labeled bovine serum albumin from chitosan-AHP gels represented as the percentage cumulative release. […] The FITC albumin concentration was determined spectrophotometrically and the percentage cumulative release was calculated. […]

## FITC-albumin: FITC-labeled bovine serum albumin loaded in chitosan-AHP gels
  percentage cumulative release profile: significantly lower compared to FITC-Dextran
